The values that follow come from publication doi:10.1101/794511.

What all share (assay): EMSA
For data set [1], the target named is T1, E47 bHLH fragment (Mus musculus, UniProt P15806-2 430-648).
T1 sequence: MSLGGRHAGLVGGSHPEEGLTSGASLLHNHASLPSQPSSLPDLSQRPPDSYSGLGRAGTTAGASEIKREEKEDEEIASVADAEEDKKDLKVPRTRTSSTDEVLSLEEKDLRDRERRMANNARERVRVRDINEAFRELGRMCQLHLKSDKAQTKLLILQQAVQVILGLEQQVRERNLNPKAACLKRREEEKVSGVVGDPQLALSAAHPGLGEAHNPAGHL

Data set [2] has as its target Gsx2 N253A homeodomain fragment (Mus musculus, UniProt P31316 167-305, N253A).
For data set [3], the target named is Gsx2 homeodomain fragment (Mus musculus, UniProt P31316 167-305).
Gsx2 homeodomain fragment, sequence (P31316 167-305): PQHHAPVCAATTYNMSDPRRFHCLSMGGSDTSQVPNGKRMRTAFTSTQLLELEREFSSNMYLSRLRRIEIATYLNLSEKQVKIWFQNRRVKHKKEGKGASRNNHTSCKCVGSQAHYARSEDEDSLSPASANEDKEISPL

Gsx2 N253A homeodomain fragment, sequence (P31316 167-305 N253A): as the sequence (P31316 167-305) above, with N87A counted along it

B1: Ac-Luc E2 (dsDNA)
DNA 1: CACCAACAGCTGCGTTTTTAGTGCGGGCGTGGCT
DNA 2: AGCCACGCCCGCACTAAAAACGCAGCTGTTGGTG
Take B1: the binding result in data set [1] was “binds”.

B2: Gsx2_site (dsDNA)
DNA 1: CAGAGTGTAATTAACATTCAGTAGTGCGGGCGTGGCT
DNA 2: AGCCACGCCCGCACTACTGAATGTTAATTACACTCTG
Turning to B2, the binding result is listed as “no binding” in data set [2] and “binds” in data set [3].
